# Data from article PMC9482650, “Quantitative fragmentomics allow affinity mapping of interactomes” (Nature Communications, 2022).
# T1: GRIP1_3, Q9Y3R0
# T1 sequence (Q9Y3R0 247-346, limits assumed, looked up): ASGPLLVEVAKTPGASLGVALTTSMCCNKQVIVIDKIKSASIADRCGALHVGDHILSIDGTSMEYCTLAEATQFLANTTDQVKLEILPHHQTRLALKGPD
# T2: MPP2, Q14168
# T2 sequence (Q14168 180-250, limits assumed, looked up): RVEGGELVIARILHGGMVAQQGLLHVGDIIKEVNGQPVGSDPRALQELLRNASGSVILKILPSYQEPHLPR
# T3: GRIP1_2, Q9Y3R0
# T3 sequence (Q9Y3R0 145-248, limits assumed, looked up): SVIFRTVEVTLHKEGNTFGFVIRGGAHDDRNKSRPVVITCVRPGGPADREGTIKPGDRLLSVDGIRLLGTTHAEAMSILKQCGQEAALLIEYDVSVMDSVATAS
# T4: APBA2_1, Q99767
# T4 sequence (Q99767 563-664, limits assumed, looked up): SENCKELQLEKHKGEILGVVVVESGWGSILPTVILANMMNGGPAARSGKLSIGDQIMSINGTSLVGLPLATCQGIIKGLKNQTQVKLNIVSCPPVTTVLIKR
# T5: LNX2_3, Q8N448
# T5 sequence (Q8N448 463-564, limits assumed, looked up): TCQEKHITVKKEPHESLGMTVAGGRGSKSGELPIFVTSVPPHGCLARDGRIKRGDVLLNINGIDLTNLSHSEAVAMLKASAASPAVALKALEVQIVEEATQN
# T6: MPP6, Q9NZW5
# T6 sequence (Q9NZW5 125-219, limits assumed, looked up): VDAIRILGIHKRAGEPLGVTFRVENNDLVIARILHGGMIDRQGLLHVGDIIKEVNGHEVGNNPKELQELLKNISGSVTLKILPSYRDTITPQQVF
# T7: SNTB1, Q13884
# T7 sequence (Q13884 107-205, limits assumed, looked up): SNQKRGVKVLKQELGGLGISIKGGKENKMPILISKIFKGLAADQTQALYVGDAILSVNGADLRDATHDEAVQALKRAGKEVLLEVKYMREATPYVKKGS
# T8: DFNB31_1, Q9P202
# T8 sequence (Q9P202 135-233, limits assumed, looked up): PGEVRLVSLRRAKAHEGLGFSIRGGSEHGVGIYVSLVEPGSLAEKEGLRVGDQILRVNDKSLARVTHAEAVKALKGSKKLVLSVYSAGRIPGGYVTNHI
# T9: GRIP1_7, Q9Y3R0
# T9 sequence (Q9Y3R0 999-1096, limits assumed, looked up): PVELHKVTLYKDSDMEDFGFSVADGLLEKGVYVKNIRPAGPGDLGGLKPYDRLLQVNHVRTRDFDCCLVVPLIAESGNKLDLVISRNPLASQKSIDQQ
# T10: DLG3_3, Q92796
# T10 sequence (Q92796 374-475, limits assumed, looked up): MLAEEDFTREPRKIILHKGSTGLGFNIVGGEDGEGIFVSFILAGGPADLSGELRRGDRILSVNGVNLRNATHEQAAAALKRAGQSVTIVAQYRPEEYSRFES
# T11: APBA2_2, Q99767
# T11 sequence (Q99767 654-744, limits assumed, looked up): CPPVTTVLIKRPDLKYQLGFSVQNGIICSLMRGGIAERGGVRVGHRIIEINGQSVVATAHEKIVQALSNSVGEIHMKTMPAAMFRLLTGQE
# T12: NHERF3_4, Q5T2W1
# T12 sequence (Q5T2W1 373-468, limits assumed, looked up): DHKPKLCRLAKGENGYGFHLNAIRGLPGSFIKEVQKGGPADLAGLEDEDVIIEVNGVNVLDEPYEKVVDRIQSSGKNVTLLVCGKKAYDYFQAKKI
# T13: ARHGEF11, O15085
# T13 sequence (O15085 42-136, limits assumed, looked up): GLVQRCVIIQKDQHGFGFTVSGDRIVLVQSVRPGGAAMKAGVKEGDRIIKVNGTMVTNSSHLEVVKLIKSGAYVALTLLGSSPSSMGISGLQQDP
# Legend:
# Assay in all cases: holdup assay
# Design in all cases: key: below the threshold = too weak to quantify, mostly under pKd 3.1 to 4
# Conditions in all cases: plain residues with an end cap or a label only (N-terminal biotin on a linker: ado-ado)
# GRIP1_3, Q9Y3R0 = molecular target: T1, GRIP1_3, Q9Y3R0
# MPP2, Q14168 = molecular target: T2, MPP2, Q14168
# IL16_4, Q14005 = molecular target: IL16_4, Q14005
# IL16_4, Q14005, sequence (Q14005 1229-1329): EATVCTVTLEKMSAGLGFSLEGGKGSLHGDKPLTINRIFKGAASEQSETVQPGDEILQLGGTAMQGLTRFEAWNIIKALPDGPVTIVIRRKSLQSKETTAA
# DLG4_1, P78352 = molecular target: DLG4_1, P78352
# DLG4_1, P78352, sequence (P78352 62-152): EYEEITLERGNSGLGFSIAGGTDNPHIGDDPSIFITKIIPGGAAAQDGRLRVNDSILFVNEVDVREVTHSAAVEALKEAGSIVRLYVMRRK
# GIPC2, Q8TF65 = molecular target: GIPC2, Q8TF65
# GIPC2, Q8TF65, sequence (Q8TF65 112-203): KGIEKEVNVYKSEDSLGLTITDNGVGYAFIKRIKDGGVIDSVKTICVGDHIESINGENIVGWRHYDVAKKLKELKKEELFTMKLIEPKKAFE
# GRIP1_2, Q9Y3R0 = molecular target: T3, GRIP1_2, Q9Y3R0
# APBA2_1, Q99767 = molecular target: T4, APBA2_1, Q99767
# LNX2_3, Q8N448 = molecular target: T5, LNX2_3, Q8N448
# GRID2IP_1, A4D2P6 = molecular target: GRID2IP_1, A4D2P6
# GRID2IP_1, A4D2P6, sequence (A4D2P6 1-87): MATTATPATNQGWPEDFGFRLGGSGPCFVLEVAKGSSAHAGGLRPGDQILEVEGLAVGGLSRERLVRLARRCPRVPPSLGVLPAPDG
# MPP6, Q9NZW5 = molecular target: T6, MPP6, Q9NZW5
# SNTB1, Q13884 = molecular target: T7, SNTB1, Q13884
# DFNB31_1, Q9P202 = molecular target: T8, DFNB31_1, Q9P202
# DLG1_3, Q12959 = molecular target: DLG1_3, Q12959
# DLG1_3, Q12959, sequence (Q12959 457-571): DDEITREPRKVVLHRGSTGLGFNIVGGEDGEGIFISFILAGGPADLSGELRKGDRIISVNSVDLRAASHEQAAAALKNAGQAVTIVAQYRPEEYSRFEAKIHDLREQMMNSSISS
# GRIP1_7, Q9Y3R0 = molecular target: T9, GRIP1_7, Q9Y3R0
# DLG3_3, Q92796 = molecular target: T10, DLG3_3, Q92796
# NOS1, P29475 = molecular target: NOS1, P29475
# NOS1, P29475, sequence (P29475 9-101): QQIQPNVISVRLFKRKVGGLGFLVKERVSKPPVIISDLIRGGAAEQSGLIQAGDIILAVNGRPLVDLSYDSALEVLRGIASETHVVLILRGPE
# GORASP2, Q9H8Y8 = molecular target: GORASP2, Q9H8Y8
# APBA2_2, Q99767 = molecular target: T11, APBA2_2, Q99767
# CASK, O14936 = molecular target: CASK, O14936
# CASK, O14936, sequence (O14936 487-570): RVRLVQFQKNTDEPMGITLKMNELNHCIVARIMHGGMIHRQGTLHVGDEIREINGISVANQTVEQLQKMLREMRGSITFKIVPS
# NHERF3_4, Q5T2W1 = molecular target: T12, NHERF3_4, Q5T2W1
# MAST2, Q6P0Q8 = molecular target: MAST2, Q6P0Q8
# MAST2, Q6P0Q8, sequence (Q6P0Q8 1099-1202): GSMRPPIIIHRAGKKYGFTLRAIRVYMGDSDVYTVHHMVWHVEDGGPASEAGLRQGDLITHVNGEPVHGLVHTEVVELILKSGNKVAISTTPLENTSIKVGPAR
# LNX1_3, Q8TBB1 = molecular target: LNX1_3, Q8TBB1
# LNX1_3, Q8TBB1, sequence (Q8TBB1 500-596): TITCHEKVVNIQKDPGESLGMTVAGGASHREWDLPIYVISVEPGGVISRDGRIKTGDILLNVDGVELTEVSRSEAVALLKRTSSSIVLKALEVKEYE
# ARHGEF11, O15085 = molecular target: T13, ARHGEF11, O15085
# TJP1_3, Q07157 = molecular target: TJP1_3, Q07157
# TJP1_3, Q07157, sequence (Q07157 416-512): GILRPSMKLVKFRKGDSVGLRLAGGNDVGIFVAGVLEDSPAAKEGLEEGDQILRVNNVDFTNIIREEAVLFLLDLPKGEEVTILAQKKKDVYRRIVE
"pKd (GRIP1_3, Q9Y3R0)","pKd (MPP2, Q14168)","pKd (IL16_4, Q14005)","pKd (DLG4_1, P78352)","pKd (GIPC2, Q8TF65)","pKd (GRIP1_2, Q9Y3R0)","pKd (APBA2_1, Q99767)","pKd (LNX2_3, Q8N448)","pKd (GRID2IP_1, A4D2P6)","pKd (MPP6, Q9NZW5)","pKd (SNTB1, Q13884)","pKd (DFNB31_1, Q9P202)","pKd (DLG1_3, Q12959)","pKd (GRIP1_7, Q9Y3R0)","pKd (DLG3_3, Q92796)","pKd (NOS1, P29475)","pKd (GORASP2, Q9H8Y8)","pKd (APBA2_2, Q99767)","pKd (CASK, O14936)","pKd (NHERF3_4, Q5T2W1)",Binder,other results
below the threshold,below the threshold,below the threshold,below the threshold,below the threshold,below the threshold,below the threshold,below the threshold,below the threshold,below the threshold,below the threshold,below the threshold,below the threshold,below the threshold,below the threshold,below the threshold,below the threshold,below the threshold,below the threshold,below the threshold,"QSGLYESEEL [MYOT, Q9UBF9]","pKd (MAST2, Q6P0Q8): 4.88; pKd (LNX1_3, Q8TBB1): below the threshold; pKd (ARHGEF11, O15085): 4.38; pKd (TJP1_3, Q07157): below the threshold"
below the threshold,below the threshold,below the threshold,3.87,below the threshold,below the threshold,below the threshold,below the threshold,below the threshold,below the threshold,3.64,below the threshold,below the threshold,below the threshold,below the threshold,3.92,3.8,below the threshold,below the threshold,4.64,"KKMLQRRTLL [OR8G1, Q15617]","pKd (MAST2, Q6P0Q8): 5.13; pKd (LNX1_3, Q8TBB1): below the threshold; pKd (ARHGEF11, O15085): 3.89; pKd (TJP1_3, Q07157): below the threshold"
below the threshold,below the threshold,3.49,below the threshold,below the threshold,below the threshold,below the threshold,below the threshold,below the threshold,3.52,5.38,4.68,below the threshold,below the threshold,below the threshold,below the threshold,below the threshold,below the threshold,below the threshold,below the threshold,"SVTSERETNI [SLC16A7, O60669]","pKd (MAST2, Q6P0Q8): 4.84; pKd (LNX1_3, Q8TBB1): below the threshold; pKd (ARHGEF11, O15085): below the threshold; pKd (TJP1_3, Q07157): below the threshold"
